Measurements: the DeepSol protein solubility set

Assay: soluble on expression in E. coli; label from the status in PepcDB or PDB records

Row | Sequence | soluble on expression in E. coli
1 | GPGSMSDSTTEKIFLLYATFSEIHRELLMEHHKTHPEHKTYMDILNYLREEEGVKQSLLKKNSNWEILQQKKLTAIENVAISVKREIPGGFSNSAIVRNALPHAVVLSGFSTSSQTNENWVRLHMQLLDEQTKLVREYNDKRFLNASVKRMIVLCHEHGCDGVAGRLKREFGVSDKMHCWSMLDAYTTMSQWGLIDQLGDVKNKNKPVIGASAFINTLLACGRQEQAKQYIHKIPQIEQRMEYYLLCSDWEGAGADCRRHGEPDLLTQLKDRVKGDASAVQLIDKGWNSVQESGAVKLAKLFA | not soluble
2 | AHHHHHHGSENPYEIVGVVAREILDSRGNPTVEVDVYTHVGMGRAAVPSGASTGTHEALELRDGGKRYHGKGVRRAVENVNKIIAPELIGMDVRWQREIDALLLELDGTENKSNVGANAILAVSLAVAKAAANSLELPLYQYLGGVNAYVLPVPLSNVINGGVHAGNDLDFQEFMIMPIGADSFREAIRWVSETYHVLKKVIMEKYGKNAVNVGDEGGFAPPMKEVTEPLDVLIKAIEEAGYKPGDEIALALDVASSELFNEETGKYVVGGKEYDRGELLELYKDLTSTYPIVSIEDPFHEEDWEGFVMITKELGHKVQIVGDDLFVTNPKRLRKGIELGAANALLLKVNQIGTLSEAMDAAFTAFRAGYGVIVSHRSGETEDATIADLAVALNAGQIKTGAPARSDRNAKYNQLIRIEEELEGVAVYAGKRFRKVFF | soluble
3 | MSLSRSEEMHRLTENVYKTIMEQFNPSLRNFIAMGKNYEKALAGVTFAAKGYFDALVKMGELASESQGSKELGDVLFQMAEVHRQIQNQLEETLKSFHNELLTQLEQKVELDSRYLSAALKKYQTEQRSKGDALDKCQAELKKLRKKSQGSKNPQKYSDKELQYIDAISNKQGELENYVSDGYKTALTEERRRFCFLVEKQCAVAKNSAAYHSKGKELLAQKLPLWQQACADPNKIPDRAVQLMQQMANSNGSILPSALSASKSNLVISDPIPGAKPLPVPPELAPFVGRMSAQENVPVMNGVAGPDSEDYNPWADRKAAQPKSLSPPQSQSKLSDSYSNTLPVRKSVTPKNSYATTENKTLPRSSSMAAGLERNGRMRVKAIFSHAAGDNSTLLSFKEGDLITLLVPEARDGWHYGESEKTKMRGWFPFSYTRVLDSDGSDRLHMSLQQGKSSSTGNLLDKDDLALPPPDYGTSSRAFPTQTAGTFKQRPYSVAVPAFSQGLDDYGARSVSR | not soluble
4 | MGSDKIHHHHHHMGMDFKVPDYMQELALASGQGLDQLSAVLARILDHPVLISSSAYKLFSSSSHYDFESFHIYSNQPRTGSDALFTCHILTDTMQSLALGRVVAPFGRTLGYIFMLTDDDSPDPTHFKPLLDYAASLCAVHLQNRLELKQEQSKFKNAFLYDLIYGNLKRNDEIIATGELWGWNFRRPHTIMVFLLPEPDFYTTEWHLMDVLSRIVEQNFIEIYYKNPAVILRQNELILFVPMQTDKPAVQTEELLVFADKILSQVQNTELKGLAACGVGQAYSEATVLFRSYQEAKVALEMGKLLGIPIPFFRDLGLERILYKHDLQDLKEYYLHVLGELHKQDDQDSSLVTILESFAENQFDVGKTAKALFMHPNTLRYRLNKIENILGKPLTDNHARLDIMAAFKIKRLHTIETLLA | not soluble
5 | MSAGTRTQQQPPPKQRHPFQPACRLWCPLSPPSVLPFCASTCRPPPQDRQVRQCGGRIALRVAISPLSSSHSVLDGISHLASRMSDHADIDEAARKRLRAEAPFVSPLPLPPPAAPLLPCDASHNGESAEAAGHILVASAPPHKEDSVASTLHTSAKEARFEGRCMPPSFHSLLGEYEVPEEAKDVEDLVGGHEDFSDLPEARREALLQSVRTLVKKAAGASSAEQLEHLRVKGSRLHGFKDTARKSELTAAYRQLVREGAIAENAVVEALLIRKKGKSHSGVLVVTVFMGPGEFSCPKDCHYCPNQPGIARSYLLKEPGVLRGFRNGWDPISQFYDRASALENNGHVVDKIELIILGGTFSFYPQRYAEEFMTASFYAANTYYDSAPLRPMRSLAEELTLNEGARCRIIGITAETRPDYISARELRRFRSLGITRVQLGIQHLDDDILNLINRDCPTAKTVVAIQRLLDAGFKVDAHWMPDLPGSSFEKDMELFETLFSAENESFQVDQWKVYPTATVPFTKISEWYAQGQYKPYAELDNGAYMVKLLVYIMEHCPYRIRLNRIIRDIPTTYIMGGEKRCNLRQVIEAEMRARHIRCKDIRERECKGNPVDRANTHLFTDEFRASEGTEFYLSVENKDRTQLYGHLRLRLRDDASREESNILPVLRGCALVRELHTYGKLIAVSQQNTGRETQHVGVGTQLMREAERIAKERGYHRMAVIAGVGVRRYYAKLGYRLEDTYMVKELDEQASAITEDQVVQDDDNENSAYSSFLSTIKSFFGFHKNTP | not soluble
6 | DEMVRFNPKKMSLKKEQVIKIIKIGAPAGLQGVVFSVSNVCIQSAINGFGTKAIAGSSAALNYEYFTYYVINAFNQTTVTFTSQNYGAKKLERCKKA | not soluble
7 | MPSLVIQDGGASIIRAVRPEEFAPQAPGKLLAIGRGVYAFLPDPLPPRLEWSLRLIALLDEARGALGELAGLLRQLPNPYLFIRPFIQKEAVLSSRIEGTQAGLLDVYALEAQVPLFPSPKLREDAQEVLNYIRALERGRELLQEIPLSLRLLKEVHAVLLRGVRGGGRAPGEFRRAQNWIGPPGSSLEEARYVPPPPGPMLEALDALERFWHSDHGLPPLVEIALVHYQFEAIHPFLDGNGRMGRLLITLMLLERGLLPEPALYLSAYFERHRTLYYDLLLGVSQRGAWEDWLAFFLEGVRTEAKDVAERARRLLDLWREWRERYGRKGGSAHILGLLDLLFERPVLTVPLVKDRLGITHAWANRLVQRLEEDGILTPVSERKRNRLYAAKEILEILEEARNA | soluble
8 | MGDIMRPIPFEELLTRIFDEYQQQRSIFGIPEQQFYSPVKGKTVSVFGETCATPVGPAAGPHTQLAQNIVTSWLTGGRFIELKTVQILDRLELEKPCIDAEDECFNTEWSTEFTLLKAWDEYLKAWFALHLLEAMFQPSDSGKSFIFNMSVGYNLEGIKQPPMQQFIDNMMDASDHPKFAQYRDTLNKLLQDDAFLARHGLQEKRESLQALPARIPTSMVHGVTLSTMHGCPPHEIEAICRYMLEEKGLNTFVKLNPTLLGYARVREILDVCGFGYIGLKEESFDHDLKLTQALEMLERLMALAKEKSLGFGVKLTNTLGTINNKGALPGEEMYMSGRALFPLSINVAAVLSRAFDGKLPISYSGGASQLTIRDIFDTGIRPITMATDLLKPGGYLRLSACMRELEGSDAWGLDHVDVERLNRLAADALTMEYTQKHWKPEERIEVAEDLPLTDCYVAPCVTACAIKQDIPEYIRLLGEHRYADALELIYQRNALPAITGHICDHQCQYNCTRLDYDSALNIRELKKVALEKGWDEYKQRWHKPAGSGSRHPVAVIGAGPAGLAAGYFLARAGHPVTLFEREANAGGVVKNIIPQFRIPAELIQHDIDFVAAHGVKFEYGCSPDLTIEQLKNQGFHYVLIATGTDKNSGVKLAGDNQNVWKSLPFLREYNKGTALKLGKHVVVVGAGNTAMDCARAALRVPGVEKATIVYRRSLQEMPAWREEYEEALHDGVEFRFLNNPERFDADGTLTLRVMSLGEPDEKGRRRPVETNETVTLLVDSLITAIGEQQDTEALNAMGVPLDKNGWPDVDHNGETRLTDVFMIGDVQRGPSSIVAAVGTARRATDAILSRENIRSHQNDKYWNNVNPAEIYQRKGDISITLVNSDDRDAFVAQEAARCLECNYVCSKCVDVCPNRANVSIAVPGFQNRFQTLHLDAYCNECGNCAQFCPWNGKPYKDKITVFSLAQDFDNSSNPGFLVEDCRVRVRLNNQSWVLNIDSKGQFNNVPPELNDMCRIISHVHQHHHYLLGRVEV | soluble
9 | MSLGKDVRFHTENWSYYPWRLWAEQFLQFEDWCLQASSKVPGIPLHVKRTVTFSTRQILDALSPSNFVLTNPDLLQETIRSNGQNLIRGTELAFQDFVEKITGSPPAGVENFIPGKQVAVTEGKVVYSNHLIELIQYTPQTEKVYKEPILILPAWIMKYYILDLLPENSLVNWLVRQGHTVFIVSWRNPTKEDRNIGLDDYYKLGAMDAINAVSNAIPHTKIHLMGYCLGGTLALLTAAAMAHDHDNRLKTLSLLAAQGDFIDAGELLLFITKSEVSFLKSMMWEQGYLDTKQMSGTFQMLRSYDLIWSKMVQDYMHGTQRGMIPLLAWNADATRMPYKMHSEYLEKLFLNNDFAEGRFILDGKPVVGENIRMPAFVVSTEKDHVAPWKSVYKTHLLINSDITFVLTNGGHNAGIVSEPGHEGRYYRIRERKMDSTYLDPTNWLKKAELREGSWWIAWHDWLVNHSSQKQVSAPKLDKNLPNAPGKYVLQKEGHHHHHH | soluble
10 | MGKRVLIVDDAAFMRMMLKDIITKAGYEVAGEATNGREAVEKYKELKPDIVTMDITMPEMNGIDAIKEIMKIDPNAKIIVCSAMGQQAMVIEAIKAGAKDFIVKPFQPSRVVEALNKVSK | soluble
11 | MKIGFIGAGKMAQALARGLINSGRITADNIIASSPKRDEVFLDQCKALGLNTTHDNAEVVQKSDVVFLAVKPVHVSKVASEIAPALSKEHLVVSIALGITIRNIESLLPTKSRVVRVMPNTPSVVRAGASAFAMGSACRDGDAETVEKLLSTVGFAVEVPEIHIDPVTGLSGSGPSYMFAVIEGLADGGVKVGLPRDLALKLAAYTLLGAAKMVLETGIHPAQLKDDVQSPAGSSVYGMHKLESGGLKGVLMDAVEAATNRSRATGDKALPRDFRNTEM | not soluble
12 | MSLTNLTVHTLEKDDIDSIIEIENLCFPTPWTKESMEGELRNKFAKYVVIKNNNLVVGYGGLWLIIDEGHITNIAVHPEFRGMGIGNKILEELIKLCEKRNIPSMTLEVRISNTIAQNLYKKFGFKEAGVRKKYYGDNDEDALIMWRNEGHHHHHH | soluble
13 | QADTAMIVQISADRKEINLVSIPRDSLVDVPQCETSKGTIPAQYNVMFNSIFAGAYKTGGDLSSAASCTLNAVNSLTGLNIQNFIVVDFAGLVKMIDSVGGVDLCIPQNVNDPYTGLNLDKGMHHLDGVAATQYARIRHGIGDGSDTSRTTRQQYLIKQLMSEALS | not soluble
14 | MGSDKIHHHHHHMHVYESDVSWIDDRRTEVSVGDHRIEVDSPPEFGGPEGQLYPETLFPSVLASCLLTTFLEFKDRMGINLKSWNSHVTAELGPSPEKGFKFHRIKIHVKIGVNDEDKEKIPRAMQLAEKYCFISRAIRNNVEEIVDYEFV | not soluble
15 | MDFQHWLHEAVNQLRDSDSPRRDAEILLEYVTGKGRTYIMAFGETPLTDVQQQQLADLLQRRKQGEPIAYLTGLREFWSLPLFVSPATLIPRPDTECLVEQALARLPVKTCRILDLGTGTGAIALALACERPDCEVTAVDRMPDAVALAIRNAEHLAIRNVRILQSCWFSALSGQQFDMIVSNPPYIDAQDPHLSEGDVRFEPRSALVADENGMADLTHIIDNARQMLTPGGFLLLEHGWQQGEAVRAVFRRSGYSDVETCRDYGGNERVTCGRFTP | not soluble
16 | MGWHFQQSVTMPSEWRTLALESDDSYNDFTVIMRRKLQENQVNVVNLEQNIPILRINKQITSDQVASIFKHGREAEKLLMLEVEATFRLANGESYPINAKVNRTFFDNARAALAKSEEREVIWNDMREQVARQLIVKIIALQNQIKRKLEHHHHHH | soluble
17 | LKASGVQAQMAKQQEQDPTNLYISNLPLSMDEQELENMLKPFGQVISTRILRDSSGTSRGVGFARMESTEKCEAVIGHFNGKFIKTPPGVSAPTEPLLCKF | soluble
18 | MAHHHHHHMLNKGFTATKIIGKRCFQWWDNLNTSWKFAIGFSVLFPPLWNYNERRKAREKQVYYNKSIRDYVFFDIAIENKYVGRVLIGLYSDQVPLSVENFIQLAEGYKVKDKYIGYRNTFIHKIYPGIGLVGGNVLNDKEGLSIYGKKFPDENFDMEFVQDGDVALFNEGPHSNSSQFIITFSPMPILHKHNVVIGTVLKGMDIIRMIENVGTKLGNPMYNVKIINCGLYRSLEQDGPPFFNMMHISDKGNKNIISKKEFESLSEQQRQSLMEEIGKSEKRR | soluble
